B1: CPEB3 Ribozyme (parent)
chain: UAACAGGGGGCCACAGCAGAAGCGUUCACGUCGCAGCCCCUGUCAGAUUCUGGUGAAUCUGCGAAUUCUGCUGUAUAUCUC

The variants in this series derive from B1. As to the kind of experiment: self-cleavage, relative activity (ratio to wild type); higher = more cleavage; in vitro, sequencing. In outline: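 Barcoded CPEB3 ribozyme mutants, produced by rounds of error-prone PCR, self-cleaved while being transcribed with T7 RNA polymerase for 5 hours at 37°C and during a subsequent 15 min DNase I step before EDTA was added. Sequencing of template-switched cDNA on Illumina gave cleaved and total reads, and DNA sequencing assigned barcodes to variants. Each variant's relative activity is its cleaved/total read fraction divided by the unmutated ribozyme's fraction, averaged across three batches. A variant needed a minimum of 5 reads.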
As for UAACAGGGGGCCACAGCAGAAGCGUUCACGUCGCAGCCCCUGUCAGUUUCUGUUGAAUCUGCGAAUUCUGCUGUAUAUCUC, the self-cleavage worked out at 1.03.

As to UAACAGGGGACCACAGCAGAAGCGUUCACGUCGCAGCCCCUGUCAGAUUCUGGUGAAUCUGCGAAUUCUGCUGUGUAUCUC, the self-cleavage was 0.19.

With UAACAGGGGGCCACAGCAGAAGAGUUCACGUCGCAGCCCCUGUCAGAUUCUGGUGAAUCGGCGAAUUCUGCUGUAUAUCUC, the self-cleavage came out at 0.06.

For UAACAGGGGGCCACCGCAGAAGCGUUCACGUCCCAGCCCCUGUCAGAUUCUGGUGAAUCUGCGAAUUCUGCUGUAUAUCUC, the self-cleavage was determined as 0.16.

UAACAGGGGGCCACGGCAGAAGCGUUCACGUCGCAGCCCCUGUCAGAUUUUGGUGAAUCUGCGAAUUCUGCUGUAUAUCUC: the self-cleavage came to 0.33.

Turning to UAACAGGGGGCCACAACAGAAGCGUUCACGUCGCAGCCCCUGUCAGAUUCUGGUGAAUCUGCGAAUUCAGCUGUAUAUCUC, the self-cleavage was found to be 0.19.

Regarding UAACAGGGGGCCACAGCAGAAGCGUUCACGUCGCAGCCCCUGUUAGAUUCUGGUGAAUCUGCGAAUUCUGCUGUAUAACUC, the self-cleavage is 0.3.

For UAACAGGGGGCCACAGCAGAAGCGUUCACGUCGCAGCCCCUGUCAGAUUCUGGUGGAUCUGCGAAAUCUGCUGUAUAUCUC, the self-cleavage is 0.44.

As to UAACAGGGGGCCACAGCAGAAGCGUUCACGUCGCGGCCCCUGUCAGAUUCUGGUGAAUCUGCGAAGUCUGCUGUAUAUCUC, the self-cleavage was found to be 1.26.

For UAACAGGGGGCCACAGCAGUAGCGUUCACGUCGCAGCCGCUGUCAGAUUCUGGUGAAUCUGCGAAUUCUGCUGUAUAUCUC, the self-cleavage worked out at 0.27.

As to UAACAGCGGGCCACAGCAGAAGCGUUCACGUCGCAGCCCCUGUCAGGUUCUGGUGAAUCUGCGAAUUCUGCUGUAUAUCUC, the self-cleavage came to 0.43.

On to UAACCGGGGGCCACAGCAGAAGCGUUCACGUCGCAGCCCCUGUCAGAUUCUGGUGAAUCUGCGAAUUCUGCAGUAUAUCUC, for which the self-cleavage amounted to 0.98.

In the case of UAACAGGGGGCCACAGCAGAAGCGUUCACGUCGCAGCCCCUGUCAGAUACUGGUGAAACUGCGAAUUCUGCUGUAUAUCUC, the self-cleavage stood at 0.21.

On to UAACAGGGGGCCACAGCAGAAGCGUUCACGUCGCAACCCCUGUCAGAUUCUGGUGAAUCUGCGAAUUCAGCUGUAUAUCUC, for which the self-cleavage was 0.32.

Regarding UAUCAGGGGGCCACAGCAGAAGCGUUCACGUCGCAGCCCCUGUCAGAUUCUGGUGAAUCUGCGAAUUCUGCUGUAUUUCUC, the self-cleavage turned out to be 1.25.

Turning to UAACAGGGGGCCACGGCAGAAGCGUUCACGUCUCAGCCCCUGUCAGAUUCUGGUGAAUCUGCGAAUUCUGCUGUAUAUCUC, the self-cleavage is 0.12.

For UAACAGGGGGCCACUGCAGAAGCGUUCACGUCGCAGCCCCUGUCAGAUUCUGGUGAAUCUGCGAAUUCUGCUGGAUAUCUC, the self-cleavage amounted to 0.97.

In the case of UAACAGGAGGCCACAGCAGAAGCGUUCACGUCGCAGCCCCUGUCAGAUUCUGGUGAAUCUGCGAAUUCUGCGGUAUAUCUC, the self-cleavage was found to be 0.12.

With UAACAGGGGGCCACAGCAGAAGCGUUCACGUCGCAGCCCCUGUCAGGUUCUGGUGAAUCAGCGAAUUCUGCUGUAUAUCUC, the self-cleavage was 0.41.

With UAACAGGGGGCCACAGCAGAGGCGUUCACGUCGCAGCCCCUGUCAGAUUCUGGUGAAUCUGCGAUUUCUGCUGUAUAUCUC, the self-cleavage is 0.24.

On to UAACAGGGGGCCACGGCAUAAGCGUUCACGUCGCAGCCCCUGUCAGAUUCUGGUGAAUCUGCGAAUUCUGCUGUAUAUCUC, for which the self-cleavage was found to be 0.28.

In the case of UAACGGGGGGCCACAGCAGAAGCGUUCACGUCGCAGCCCCUGUCAGACUCUGGUGAAUCUGCGAAUUCUGCUGUAUAUCUC, the self-cleavage worked out at 0.57.

For the variant UAACAGGGGGCCACAGCAGCAGCGUUCACGUCGCAGCCCCUGUCCGAUUCUGGUGAAUCUGCGAAUUCUGCUGUAUAUCUC, the self-cleavage came to 0.35.

Consider UAACAGGGGGCCACAGCAGAAGUGUUCACGUCGCAGCCCCUGUCAGAUUCUGGUGAAUCUGCGAAUACUGCUGUAUAUCUC, for which the self-cleavage was 0.16.

In the case of UAACAGGGGGCCACAGCAGAAGCGUUCACGUCGCAGCCCCUGACAGAUUCUGGUGAAUCUGCGAAUUCUGCUGUGUAUCUC, the self-cleavage was 1.01.

UAACAGGGGGCCACGGCAGAAGCGUUCACGUCGCCGCCCCUGUCAGAUUCUGGUGAAUCUGCGAAUUCUGCUGUAUAUCUC: the self-cleavage was 0.45.

Regarding UAACAGGGGGCCACAGCAGAAGCGUUCACGUCGCAGCCCCUGUGAGAUUCUGGUGAAUCUGCGAAUUCUGUUGUAUAUCUC, the self-cleavage amounted to 0.15.

Take UAACAGGGGGCCUCAGCAGAAGCGUUCACGUCGCAGCCCCUGUCAGAUUCUGGUGAAUCUGCGAAUUUUGCUGUAUAUCUC: the self-cleavage is 1.21.

UAACAGGGGGCCACAGCAGAAGCGUUCACGUCGCAGCCCCCGUCAGAAUCUGGUGAAUCUGCGAAUUCUGCUGUAUAUCUC: the self-cleavage worked out at 0.6.

Take UAACAGGGGGCCACAGCAGUAGCGAUCACGUCGCAGCCCCUGUCAGAUUCUGGUGAAUCUGCGAAUUCUGCUGUAUAUCUC: the self-cleavage was determined as 0.26.

On to UAACAGGGGGCCACAGCAGGAGCGUUCACGUCGCAGCCCCUGUCAGAUUCGGGUGAAUCUGCGAAUUCUGCUGUAUAUCUC, for which the self-cleavage was 0.82.

Regarding UAACAGGGGGCCACAGCAGAAGCGUUCACGUCGCAGCCCCUGUCAGAUUCUGGUAAAUCUGCGAAUUCAGCUGUAUAUCUC, the self-cleavage worked out at 0.39.

In the case of UAACAGGGGGCCACAGCAGAAGCGUUCCCGUCGCAGCCCCUGUCAGAUUCUGGUGAAUCUGCUAAUUCUGCUGUAUAUCUC, the self-cleavage was found to be 0.41.

As for UAACAGGGGGCCACAGCAGAAGCGUUCACGUCGCAGCCCCUGUCAGAUUCUGGUUAAUCUGCGAAUUCUGCUGUAUAUCCC, the self-cleavage amounted to 1.06.

(Values after the RNAGym collection of RNA variant scans (doi:10.1093/nar/gkz1192).)
